Results published in the supplement of paper PMC9732359.
± gives the uncertainty stated by the source.

Assay: protein stability index of a GFP-peptide fusion (yeast GPS) (PSI 1-4); higher = more stable; sorted into four equal gates, so the index is relative within each strain
Outline: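 Sequencing reads from sorted gates were used to score each peptide. The library consisted of tiled 17-residue yeast protein peptides fused downstream of GFP on a Cherry-expressing plasmid, pooled and carried in yeast. Mid-log cultures in leucine-free medium were split into four equal gates by GFP/Cherry ratio, and each gate's plasmids were PCR-amplified and Illumina-sequenced. The protein stability index adds up, over all gates, the read frequency multiplied by the gate number.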

Sequence | protein stability index (doa10∆) | protein stability index (pdr5∆) | protein stability index (san1∆) | protein stability index (ubr1∆)
DQLDSEAASITRKSLNN [ECM29] | 2.89 ± 0.1 | 2.91 ± 0.1 | 3.04 ± 0.064 | 2.95 ± 0.049
IHGVLKNVDREVVSEAI [FAS2] | 3.19 ± 0.1 | 3.4 ± 0.3 | 3.3 ± 0.14 | –
NIKFLSKLEGTINKAVQ [ESC2] | 2.86 ± 0.11 | 3.35 ± 0.14 | 2.72 ± 0.1 | 2.91 ± 0.1
KKRESGVEEEEELKDSE [SNF2] | 3.38 ± 0.28 | – | 3.3 ± 0.12 | –
DLKKFTSTITKYKQLLL [RPN3] | 2.92 ± 0.089 | 3 ± 0.055 | 2.91 ± 0.066 | 3.07 ± 0.045
ELTKTKSSLYSAQDLLD [YIL149C/MLP2] | 2.67 ± 0.05 | 2.84 ± 0.05 | 2.6 ± 0.07 | 2.83 ± 0.029
VSNSGAQDEEIHKQIVI [UBP6] | 3.17 ± 0.16 | 3.5 ± 0.14 | 3.08 ± 0.14 | 3.16 ± 0.11
KFDIIIVDTSGRHHQEE [SRP54] | 3.01 ± 0.07 | 2.94 ± 0.046 | 2.71 ± 0.072 | 3.17 ± 0.06
INYAFSMDEEFKNMDCI [SIR3] | 3.21 ± 0.051 | 3.22 ± 0.042 | 3.26 ± 0.033 | 3.321 ± 0.031
ISVTRQVVLGGTSKYLI [SMC2] | 2.65 ± 0.074 | 2.96 ± 0.14 | 2.79 ± 0.068 | 2.73 ± 0.062
VLTAAGVERLIFYPDEY [PRE3] | 2.78 ± 0.11 | 2.94 ± 0.093 | 2.9 ± 0.074 | 2.95 ± 0.11
AKRNLPHTTLVNECIAQ [CDC53] | 2.37 ± 0.072 | 2.48 ± 0.059 | 2.65 ± 0.067 | 2.68 ± 0.04
LLSDTFEVLAPKWERVF [RRI2] | 3.13 ± 0.11 | 2.48 ± 0.076 | 1.75 ± 0.091 | 2.93 ± 0.11
KLKLLRMERIKDHLLLE [RPT2] | 2.27 ± 0.079 | 2.05 ± 0.064 | 2.12 ± 0.092 | 1.86 ± 0.054
QISIIDIWSISKKRQAE [YML031W/NDC1] | 2.32 ± 0.056 | 2.63 ± 0.052 | 2.54 ± 0.053 | 2.79 ± 0.039
FNELCDPESRTQSYNNQ [POP1] | 3.09 ± 0.14 | 3.02 ± 0.12 | 2.95 ± 0.11 | 2.96 ± 0.084
PTNCPLRQFKTCPVEVI [BRR2] | 3 ± 0.093 | 3.17 ± 0.09 | 3.33 ± 0.063 | 2.9 ± 0.066
TIITDCAFLLTKIKDAE [YJL039C/NUP192] | 2.52 ± 0.071 | 2.78 ± 0.077 | 2.06 ± 0.13 | 2.52 ± 0.07
DPALLRPGRIDRKIEFP [RPT6] | 3.18 ± 0.075 | 3.32 ± 0.077 | 3.05 ± 0.057 | 3.26 ± 0.048
VRDELRKVEKEKNEKER [UBP6] | – | – | 3.5 ± 0.13 | 3.78 ± 0.2
RNVNWIERLTKRQFNNS [ITC1] | 3.05 ± 0.12 | 3.36 ± 0.15 | 3.05 ± 0.13 | 3.41 ± 0.12
KSSELELQKLVHDLNKY [SMC2] | 3.22 ± 0.088 | 3.41 ± 0.079 | 3.36 ± 0.045 | 3.4 ± 0.05

Sequence | protein stability index (doa10∆) | protein stability index (pdr5∆) | protein stability index (san1∆) | protein stability index (ubr1∆)
TKIAQSQTMAETYVASY [ECM29] | 1.92 ± 0.037 | 2.48 ± 0.036 | 2.27 ± 0.044 | 2.22 ± 0.034
FTRPLFVLLEIEPVTKV [YCS4] | 1.94 ± 0.062 | 2.05 ± 0.07 | 1.95 ± 0.081 | 1.97 ± 0.069
SRTDAVRCKDCGHRILL [RPC10] | 2.62 ± 0.16 | 3.31 ± 0.19 | 2.66 ± 0.13 | 3.02 ± 0.078
VAHSSRLANLIDYKLRV [SMB1] | 3.58 ± 0.15 | 3.26 ± 0.15 | 2.5 ± 0.2 | 3.17 ± 0.066
VKEIVLPLFYDLLNAAS [IRR1] | 2.36 ± 0.045 | 2.48 ± 0.052 | 2.78 ± 0.036 | 2.69 ± 0.049
QSTPVLLNHGERAELET [RPN1] | 3.03 ± 0.13 | 2.31 ± 0.12 | 2.02 ± 0.16 | 2.66 ± 0.078
LLAKAVANQTSATFLRI [RPT2] | 3 ± 0.13 | 2.27 ± 0.1 | 2.3 ± 0.14 | 2.21 ± 0.073
APMRLATAALEIILKLC [YJL039C/NUP192] | 1.6 ± 0.064 | 2.06 ± 0.043 | 1.31 ± 0.087 | 2.4 ± 0.057
SNIGNNSINNNNIKNGT [YDL088C/ASM4] | 2.72 ± 0.047 | 2.85 ± 0.057 | 2.85 ± 0.047 | 2.65 ± 0.042
MGKRVDFSARTVISGDP [RPO21] | 2.98 ± 0.087 | 3.27 ± 0.12 | 3.08 ± 0.14 | 3.1 ± 0.19
LEESDVEDTLHVNKRKR [YOR098C/NUP1] | 3.26 ± 0.095 | 2.89 ± 0.095 | 3.12 ± 0.074 | 2.91 ± 0.062
WLNFLRGTIPLLERYIG [PRP8] | 1.41 ± 0.068 | 1.23 ± 0.046 | 1.18 ± 0.077 | 1.1 ± 0.065
PVVRAPTVKYNRKVRAG [RPL13A] | 1.22 ± 0.1 | 2.15 ± 0.14 | 1.98 ± 0.18 | 1.49 ± 0.11
TIGPYRARKDRMRVSVL [SSN3] | 3.19 ± 0.15 | 2.99 ± 0.085 | 3.07 ± 0.083 | 3.12 ± 0.052
ETQVEVEKNEIGKMYDE [NNF1] | 3.05 ± 0.19 | 3.21 ± 0.11 | 2.98 ± 0.17 | 3.37 ± 0.13
PRGLNSARKLRVHRRNN [RPS23A] | 2.39 ± 0.088 | 3.06 ± 0.079 | 2.96 ± 0.096 | 2.8 ± 0.073
PAFSFGAKPEEKKDDNS [YJL041W/NSP1] | 3.27 ± 0.16 | 3.26 ± 0.13 | 2.98 ± 0.24 | 3.29 ± 0.13
DENDSKKNNAASELANP [YAR002W/NUP60] | 2.97 ± 0.078 | 2.99 ± 0.052 | 3.05 ± 0.047 | 2.97 ± 0.047
YIEASGREGIWSKTIKA [RPC34] | 1.78 ± 0.1 | 2.07 ± 0.16 | 2.3 ± 0.17 | 2.42 ± 0.1
FGEWAGMTKSNIYNFSP [BRR2] | 2.94 ± 0.083 | 3.05 ± 0.082 | 2.89 ± 0.055 | 2.98 ± 0.052
NDYLEKHSVTEYIFEAH [CDC53] | – | 2.79 ± 0.12 | 3.12 ± 0.094 | 3.17 ± 0.1
